In a protein production outcome set (Wang et al. 2014):

Experiment: label from the status in PepcDB records

Row | Sequence | protein production
1 | MPSSSNSAAFSLDEFAKALDKHDYHAEKGQTVHGKICQHANEGVYVDFGGKSPGFVPVQELGLRPHAEIEDSFPLDSAWDFLVTSEQNDEGQVRLSRRQLQIQQSWENLAELEESGKTLEMVVTGTNKGGVVGDVEGLRGFIPRSHLMHKDNMDALVGQVLKAHILEANQDNNKLVLTQRRIQQAESMGKIAAGNIYEGKVAKIQPYGVFVEIEGVTGLLHVSQVSGTRVDSLNTLFAFGQAISVYVQEIDEYKNRISLSTRILETYPGELVEKFDEMMADAPNRLPLVQSKQNLGDKQEQLEKSLEHHHHHH | failed
2 | MPSSTFSGTVSTPKLSVAVDMGNPFLNLTVDAFLKIGAVGVTKSLAEDTYKAIDKGSLSKSTLEHALKKLCKEGVYWGAAGGVYIGTEYGIERIRGSRDWKNAMLAGAATGAVLSAVGKKGKDTIVIDAILGGALATASQFVNNHYFY | failed
3 | MPTDDIVQLLKGQEEAWNRGDLDAYMQGYWQNEQLMLISNGKFRNGWDETLAAYKKNYPDKESLGELKFTIKEIKMLSNYAAMVVGRWDLKRLKDTPTGVFTLLVEKIDDRWVITMDHSSD | not failed
4 | MPTFHEIDVLRHNSASWDAQAARDCEWSRPVSAEEVAAARRGDWAVKLTPGALPAHWLGDVRGREILCLASAGGQQAPILAAAGARVTLFDASAGQLDKDRQVAARDRLELACVQGDMRDLSTFADASFDLVFNPISNLYVDDVLPVWRECARVLRPGGKLLASFYNPALFIEDRSPELAEQGLIRPRHRLPYSDLESLSAEALAAKREKGEALVFGHSLTQQIAGQLAAGLLLQDFYEDWQPHPRFVIDRFVPTFLATCALKPRSAAG | failed
5 | MPTISTSVCVNYTQDQMYELVNDVADYPKYLPLCRDVRVLSAADRHIKATITLAKGAVRLNFTTANTMEPGRHIHMKLVDGPFKYLRGNWRFDANPHGGCDVSFRVDFEFANPLLQMALGGIFREVMESLVAAFCNQAAKRYGNAGPALPPGQAQDGVGRSGSV | failed
6 | MPTKKADIYTLAKFGDLGAFKESFKIENINDKSESGSGLLHYAISGLKFDIAMFLIENGIDVNITNEVGQTALHYICNYPNIDVAKCILKHGGDINIRDKYYNNALWTAVFNCKGRYYDMVELFMEYSPDVETKNNAGRSPLDFAIQVGNEKLIKMLRKKE | failed
7 | MPTLEMPVAAVLDSTVGSSEALPDFTSDRYKDAYSRINAIVIEGEQEAHDNYIAIGTLLPDHVEELKRLAKMEMRHKKGFTACGKNLGVEADMDFAREFFAPLRDNFQTALGQGKTPTCLLIQALLIEAFAISAYHTYIPVSDPFARKITEGVVKDEYTHLNYGEAWLKANLESCREELLEANRENLPLIRRMLDQVAGDAAVLQMDKEDLIEDFLIAYQESLTEIGFNTREITRMAAAALVS | not failed
8 | MPTLKVAYIPEHFSTPLFFAQQQGYYKAHDLSIEFVKVPEGSGRLINLLNSNEVDIAIGLTEAFIADIAKGNENIHVLDTYVKSPLLWAVSTGSNRDDVTDAKQLKRIGVSRIGSGSYVMSFVLAHQLGVPSFDQFQVLSNFKNLRDSVNLKDGVEGSDAFMWEYFTSKKYYDNHEIKQIDQIYTPWSSWVVATSSDSLQAKSDVIKNFIDAVNQGIQYYNEHVDEAIEYISSNLDYSAEDAKEWTKTVEFNSRIGKTPLDWDTIVVKTKDTLKLAGVLAESDDVILKRLNSNVKKTNL | not failed
9 | MPTNQDLQLAAHLRSQVTTLTRRLRREAQADPVQFSQLVVLGAIDRLGGDVTPSELAAAERMRSSNLAALLRELERGGLIVRHADPQDGRRTRVSLSSEGRRNLYGNRAKREEWLVRAMHACLDESERALLAAAGPLLTRLAQFEEP | not failed
10 | MPTPIHVLPPHVARLIAAGEVVSRPLDVVRELVENALDAGASRIEIEVDGGGLERVQVRDNGSGIAAQSVPLAPARHATSKLTAGPETGSLSVTTLGFRGEALWAAAQAGELELTTRPAAQVGAARLRAQGDAVEVSRTSAPAGTTVTVSQLFARLPARLRTQASAAAEVRDITALLGRYVLHHSALHWRLTVDGDPRLTHAPADHRGAVATVYGPLSANRVLTLDTPGVRGVVSRPELTRARRDRMHFAVNGRPIVAPPELERAVIDAYAELLPAGTAPLCVLDLTVAPEDYDPNIHPAKQVVALADLPAVALRVRDAVAGALAGHPLVRAAPALIAPPEPHPAPTAGNFPDLTLLGVYQELYLLAQGEGDLWVVDAHAAHERALYERLGRELGTAAPLELPTPELLHLTPEQTARLHERGAELRGWGLTIEDFGAGLARLRTLPAALAALPVPRLHEVVVETALSGGPDPRREVLARLACLPALKAGMLDAERGALVLAALRECEQPWACPHGRPTVLRLSERDLAHAFGRRGVRDVARGRDSVV | failed
11 | MPTVSVKWQKKVLDGIEIDVSLPPYVFKAQLYDLTGVPPERQKIMVKGGLLKDDGDWAAIGVKDGQKLMMMGTADEIVKAPEKAIVFAEDLPEEALATNLGYSAGLVNLGNTCYMNSTVQCLKSVPELKSALSNYSLAARSNDVDQTSHMLTVATRELFGELDRSVLRKKYPQFSQLQNGMHMQQDAEECWTQLLYTLSQSLKAPTSSEGADAVKALFGVNLQSRIKLGVLDNVTDSTVISKCTLHCQESGEESSETESVYSLKCHISHEVNHLHEGLKHGLKGELEKTSPALGRTALYVKESLIDSLPRYLTVQFVRFFWKRESNQKAKILRKVDYPLVLDIFDLCSEDLRKKLEAPRQKLREEEGKKLGLQTSAKSGSKDSDVKMTDAEASANGSGESSTVNPQEGTSSEKETHMTGIYDLVAVLTHKGRSADSGHYVAWVKQESGKWIQYDDDNPSMQREEDITKLSGGGDWHMAYITMYKARFVSM | failed
12 | MPTYEELSQAVFEGDEAQVVELTRSLLSGGAEPLEVINKGLIAGMDRVGVLFKNNEMFVPEVLMSANAMNAGVEVVKQSQQAFDMPSVGKIVLGTVKGDLHDIGKNLVAMMLESGGFTVYNLGVDIEPGKFVEAVKKYQPDIVGMSALLTTTMMNMKSTIDALIAAGLRDRVKVIVGGAPLSQDFADEIGADGYAPDAASATELCRQLLE | not failed
13 | MPVCARAAAATGAAGHRSHLPEVTFCLRTIAERLHGGQHRRMNSSFCHLLHPLRLAAAFTIAAVALSFMPDASAHGAWRWGALAGFTALFVLHTVLPQTHALRTVATLLQAVLALLLVWIEPRAGTAPVLLVMLVAQAGMTWPPLRVLLLALALNAGMYAVLVHAGFDRALLIVSIYAGFQAFAALTAHYARSAERARDALAYVNADLLATRALLADSARDAERLRLARELHDVAGHKLTAMRINLRLLSADPALAQRDEVAVVEQLSAELLSDIRNVVQSLRDDQGLDLQTALRALAAPFPRPTLRLQIDADVRVTDARVAELLLRLVQEALTNAVRHADADEVAVHLHCEGAQLHVDICDDGRRAERIREGNGITGMRERLAALHGQLDLGRTPTGGMHLIARLPV | failed
14 | MPVGIIGHYRCGEHNMGEHHPENGKRLTAISDQLIRSGLDYVVRQFDSKPIDKSLLALAHTQEHIDFVFDNAPNEGEENFTVGEDSVMNEKTLTSIMYSAGAAVDAVDLVMEGTLGAAFCATRPPGHHAEHDKGMGFCFFNNVAVAAAYAKQKYGLKRVAIVDFDVHHGNGTEDIITNHFNATPEDDKGYLFCSSYQYPLYPFEIQESDTPPIINTPLAATTKGEQFREKLTAHWLPALHKFKPELILISAGFDAHIEDEMSHVSLTEADYRWITDELKIIAEEYGKGRIVSVLEGGYAPSALGRSVVAHVNGLIGN | failed
15 | MPVKTFVFDQIQKLMGWCPACRKMTLQTEQPCNFINTAQISGKTGNIPEFRTSNIIFPANTTLVFVLFYICISLLLRYPEDISLFLAGLFLLNIFYYFLYLKTLEAAVLVDRFGVHMHAFRLKKFEIPFEEIESMKLCRLEKRSKKMSLLLVIGGIALCGFFVYIAVAEGEWKPLLLLVSIIPLLLLVEMKQKMRFWNLNTQLYIKTRHKKLYEWTPYYSLITDEASAEELKSFIERHL | failed
16 | MPVLVLLLAVGTGCVSTGTNPVSGNTRAYGYSWQEEVTMGQKADKQIQSQYGVYDDEELQEYVDGVAQEVLAESHMRRPDTPERFRNTEFEFRVLDSPIINAFALPGGYVYVTRGLVAHLNNEAQLAMVLGHEIGHVAARHASQQAARQKFTQGLLLSGAVAGQVAFGGNVAENVMGLGGQAAQLLSLSYSRDNERESDRLGVEYAVRAGYDGAEGAAFFESLERVREQGGQSIPTWQSTHPDPGARQQTIPELAQTWRKKVDRPATTIDQDAYYNALEGTVLGKNPRQGFVEEGVFYQPELAFRFSIPSRWDVQNQPQQVALVQPDQSAYMIFTFSDAETPDAAARKFAGQDGLSVLDRQSTSVNGNDARRVLAEGKTQQGQVVRLLTYFIAYGDNVYQFQGTTSADRYDAYRPDFERTMTSFARLTDSEKLNRQPARIAIQAADREGAFRSFVDTDALPSDMTEEDLAIINQLDVDQVVAPDRPLKLPN | failed
17 | MPVMQSRIIHLSVEKPWAEVYDFAANPGNMPRWAAGLAGGLEADGEDWIAKGGPLGEVRVNFAPHNEFGVIDHVVTLPDGLKVYNALRVTPNGSGTEVSFTLLRLEGMTDEDFEQDASAITADLEMLKSLLEAD | not failed
18 | MPVPPEFPLSVFYDGSCSVCATEMEAYMRKEHGGRLLFVDISAPSFDPTPYGITLDAFMYQMHAIDRTGRVYLSVEAFWAIWQAFPASTLYGFLGALVMLPGVNLLARAGYRGFARIRKYLPRRRETCAGGSCRIGQREE | failed
19 | MPVRVIVDSSACLPTHVAEDLDITVINLHVMNNGEERSTSGLSSLELAASYARQLERGGDDGVLALHISKELSSTWSAAVTAAAVFDDDSVRVVDTSSLGMAVGAAAMAAARMAKDGASLQECYDIAVDTLKRSETWIYLHRIDEIWKSGRISTATAMVSTALATRPIMRFNGGRMEIAAKTRTQSKAFAKLVELAQIRADGEPVFIAIGQNEAREAAKQLEELLRNALPEGSSFMSVDIDPTLAVHSGPGAVSVSAVFANQAPELSTGKAGAK | not failed
20 | MPVSNEIWQLLSRLAEDIRPIGVNISAGEPNRLWTEAKWRALLERFPGERFVVLSGPDDLDAKRRLEEQCPNAVASPPTRNLYEASCIVAKLRLLVTPDTSMVHVASATGTPVAGLYREAPQDISRFGPYAIPYEIVISPTGEVSGIKPESVADAVRRLMARAIGREALEHHHHHH | not failed
21 | MPYEMKFKGVYVLAMEDNSSFKGKIEVGDTVTGVDGKSFKSSEELMNYIKAQKVNQKVTVQFIQDGKAKEATGKLIELPTDKKAGIGIGLTDHTLEHHHHHH | not failed
22 | MPYVDRQNRICGFLDIEDNENSGKFLRRYFILDTQANCLLWYMDNPQNLAVGAGAVGSLQLTYISKVSIATPKQKPKTPFCFVINALSQRYFLQANDQKDLKDWVEALNQASK | not failed
23 | MPYVFSFKMPQEQGQMFQYYPVYMVLPWEQPQQTVPRSPQQTRQQQYEEQIPFYAQFGYIPQLAEPAISGGQQQLAFDPQLGTAPEIAVMSTGEEIPYLQKEAINFRHDSAGVFMPSTSPKPSTTNVFTSAVDQTITPELPEEKDKTDSLREP | failed
24 | MQAALEVTARYCGRELEQYGQCVAAKPESWQRDCHYLKMSIAQCTSSHPIIRQIRQACAQPFEAFEECLRQNEAAVGNCAEHMRRFLQCAEQVQPPRSPATVEAQPLPAS | failed
25 | MQADPAIRRFAKKRNKRVDRMILDSNYMHTSIDRYFPNESKRRGRPDIIYLLLEMTQESILNHKNQLRTYVHTRNNQVIRISPITRMPKSYNRFIGLFEDLFEKRIITNNGKELLSMEESSLGDLINSIRRDRTILLHPKGEMRKPSEFISNANILIVIGGFSEGDFISDTSFINERYAIFDQELTIWSVANEMVANYERAVGLTLEHHHHHH | not failed
